Here are results for one molecule from publication doi:10.1101/2023.12.22.573000.

The term Kd denotes the constant that tells how readily two partners part at equilibrium.

The data set deals with T1, RIG-I (recombinant) (human? (GeneID 23586), UniProt O95786 1-925).
T1 sequence: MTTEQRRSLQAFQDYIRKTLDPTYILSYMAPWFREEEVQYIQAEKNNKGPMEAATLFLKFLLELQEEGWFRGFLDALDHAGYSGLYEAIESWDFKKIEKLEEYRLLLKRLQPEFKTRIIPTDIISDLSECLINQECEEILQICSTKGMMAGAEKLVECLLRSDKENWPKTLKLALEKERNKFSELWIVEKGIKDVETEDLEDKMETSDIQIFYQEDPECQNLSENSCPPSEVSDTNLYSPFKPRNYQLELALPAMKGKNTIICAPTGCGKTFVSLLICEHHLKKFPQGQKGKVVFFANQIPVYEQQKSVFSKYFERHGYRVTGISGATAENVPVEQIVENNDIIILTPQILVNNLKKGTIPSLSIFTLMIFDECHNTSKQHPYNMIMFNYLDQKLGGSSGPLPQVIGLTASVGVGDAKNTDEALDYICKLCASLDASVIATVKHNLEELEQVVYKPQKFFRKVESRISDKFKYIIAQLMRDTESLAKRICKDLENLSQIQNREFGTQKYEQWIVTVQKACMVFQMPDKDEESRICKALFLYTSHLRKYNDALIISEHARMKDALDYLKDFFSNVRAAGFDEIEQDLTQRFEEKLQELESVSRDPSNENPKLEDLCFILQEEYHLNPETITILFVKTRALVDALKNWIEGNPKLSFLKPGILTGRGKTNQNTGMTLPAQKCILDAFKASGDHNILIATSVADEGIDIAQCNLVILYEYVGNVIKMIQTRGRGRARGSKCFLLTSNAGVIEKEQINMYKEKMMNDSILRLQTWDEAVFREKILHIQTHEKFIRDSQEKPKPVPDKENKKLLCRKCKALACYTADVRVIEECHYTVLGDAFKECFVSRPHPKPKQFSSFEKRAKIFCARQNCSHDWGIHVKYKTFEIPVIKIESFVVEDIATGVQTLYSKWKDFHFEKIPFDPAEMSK
The data set can be described thus: EMSA.

B1: 5'-pppA synthetic 24 bp dsRNA (dsRNA)
RNA 1: AGCAAAAGCAGGGUGACAAAGACA
RNA 2: UGUCUUUGUCACCCUGCUUUUGCU
modifications: 5'-ppp on sense strand only
With B1, the Kd was 0.4 nM.
